13 variants from IntAct's records for PubMed 31515488 can be followed below.

The labels stand for the following.
B1: 6-pyruvoyl tetrahydrobiopterin synthase (Homo sapiens), Q03393 (parent)
chain: MSTEGGGRRCQAQVSRRISFSASHRLYSKFLSDEENLKLFGKCNNPNGHGHNYKVVVTVHGEIDPATGMVMNLADLKKYMEEAIMQPLDHKNLDMDVPYFADVVSTTENVAVYIWDNLQKVLPVGVLYKVKVYETDNNIVVYKGE
B2: F-box/WD repeat-containing protein 1A (Homo sapiens), Q9Y297 (parent)
chain: MDPAEAVLQEKALKFMCSMPRSLWLGCSSLADSMPSLRCLYNPGTGALTAFQNSSEREDCNNGEPPRKIIPEKNSLRQTYNSCARLCLNQETVCLASTAMKTENCVAKTKLANGTSSMIVPKQRKLSASYEKEKELCVKYFEQWSESDQVEFVEHLISQMCHYQHGHINSYLKPMLQRDFITALPARGLDHIAENILSYLDAKSLCAAELVCKEWYRVTSDGMLWKKLIERMVRTDSLWRGLAERRGWGQYLFKNKPPDGNAPPNSFYRALYPKIIQDIETIESNWRCGRHSLQRIHCRSETSKGVYCLQYDDQKIVSGLRDNTIKIWDKNTLECKRILTGHTGSVLCLQYDERVIITGSSDSTVRVWDVNTGEMLNTLIHHCEAVLHLRFNNGMMVTCSKDRSIAVWDMASPTDITLRRVLVGHRAAVNVVDFDDKYIVSASGDRTIKVWNTSTCEFVRTLNGHKRGIACLQYRDRLVVSGSSDNTIRLWDIECGACLRVLEGHEELVRCIRFDNKRIVSGAYDGKIKVWDLVAALDPRAPAGTLCLRTLVEHSGRVFRLQFDEFQIVSSSHDDTILIWDFLNDPAAQAEPPRSPSRTYTYISR
B3: Cyclin-dependent kinase 2-interacting protein (Homo sapiens), Q9BW66 (parent)
chain: MEAKTLGTVTPRKPVLSVSARKIKDNAADWHNLILKWETLNDAGFTTANNIANLKISLLNKDKIELDSSSPASKENEEKVCLEYNEELEKLCEELQATLDGLTKIQVKMEKLSSTTKGICELENYHYGEESKRPPLFHTWPTTHFYEVSHKLLEMYRKELLLKRTVAKELAHTGDPDLTLSYLSMWLHQPYVESDSRLHLESMLLETGHRAL
partner: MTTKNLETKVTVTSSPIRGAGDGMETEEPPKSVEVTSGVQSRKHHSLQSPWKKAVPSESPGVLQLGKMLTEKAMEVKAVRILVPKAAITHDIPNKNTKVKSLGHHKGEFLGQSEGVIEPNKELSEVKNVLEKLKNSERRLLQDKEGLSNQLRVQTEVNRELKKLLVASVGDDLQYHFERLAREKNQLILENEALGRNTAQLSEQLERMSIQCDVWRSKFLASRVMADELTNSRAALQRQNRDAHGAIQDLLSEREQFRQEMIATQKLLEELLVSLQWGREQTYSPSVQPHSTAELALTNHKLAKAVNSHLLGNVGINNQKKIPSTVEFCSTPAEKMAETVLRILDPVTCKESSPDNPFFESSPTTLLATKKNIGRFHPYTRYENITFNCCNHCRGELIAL
B4: Guanine nucleotide exchange factor for Rab-3A (Homo sapiens), Q8TBN0 (parent)
chain: MWSGPPQPDQGLPPPLAAVPVPWKSTDPCQGHRESPGALVETSAGEEAQGQEGPAAAQLDVLRLRSSSMEIREKGSEFLKEELHRAQKELKLKDEECERLSKVREQLEQELEELTASLFEEAHKMVREANMKQAASEKQLKEARGKIDMLQAEVTALKTLVITSTPASPNRELHPQLLSPTKAGPRKGHSRHKSTSSTLCPAVCPAAGHTLTPDREGKEVDTILFAEFQAWRESPTLDKTCPFLERVYREDVGPCLDFTMQELSVLVRAAVEDNTLTIEPVASQTLPTVKVAEVDCSSTNTCALSGLTRTCRHRIRLGDSKSHYYISPSSRARITAVCNFFTYIRYIQQGLVRQDAEPMFWEIMRLRKEMSLAKLGFFPQEA
partner: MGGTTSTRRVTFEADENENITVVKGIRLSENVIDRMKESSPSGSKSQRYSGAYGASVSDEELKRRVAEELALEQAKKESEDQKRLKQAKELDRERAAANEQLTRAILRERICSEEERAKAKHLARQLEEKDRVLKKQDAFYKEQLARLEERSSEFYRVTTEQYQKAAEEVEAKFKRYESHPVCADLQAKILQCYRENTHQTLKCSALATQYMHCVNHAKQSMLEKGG
B5: Pre-B-cell leukemia transcription factor-interacting protein 1 (Homo sapiens), Q96AQ6 (parent)
chain: MASCPDSDNSWVLAGSESLPVETLGPASRMDPESERALQAPHSPSKTDGKELAGTMDGEGTLFQTESPQSGSILTEETEVKGTLEGDVCGVEPPGPGDTVVQGDLQETTVVTGLGPDTQDLEGQSPPQSLPSTPKAAWIREEGRCSSSDDDTDVDMEGLRRRRGREAGPPQPMVPLAVENQAGGEGAGGELGISLNMCLLGALVLLGLGVLLFSGGLSESETGPMEEVERQVLPDPEVLEAVGDRQDGLREQLQAPVPPDSVPSLQNMGLLLDKLAKENQDIRLLQAQLQAQKEELQSLMHQPKGLEEENAQLRGALQQGEAFQRALESELQQLRARLQGLEADCVRGPDGVCLSGGRGPQGDKAIREQGPREQEPELSFLKQKEQLEAEAQALRQELERQRRLLGSVQQDLERSLQDASRGDPAHAGLAELGHRLAQKLQGLENWGQDPGVSANASKAWHQKSHFQNSREWSGKEKWWDGQRDRKAEHWKHKKEESGRERKKNWGGQEDREPAGRWKEGRPRVEESGSKKEGKRQGPKEPPRKSGSFHSSGEKQKQPRWREGTKDSHDPLPSWAELLRPKYRAPQGCSGVDECARQEGLTFFGTELAPVRQQELASLLRTYLARLPWAGQLTKELPLSPAFFGEDGIFRHDRLRFRDFVDALEDSLEEVAVQQTGDDDEVDDFEDFIFSHFFGDKALKKRSGKKDKHSQSPRAAGPREGHSHSHHHHHRG

In the first assay the parent is B1. The following applies: with ntaq1_human NTAQ1, Q96HA8.
As for MSTEGGGRRCQAQVSRRISFSASHRLYSKFLSDEENLKLFGKCNNPNGHGHNYKVVVTVHGEIDPATGMVMNLADLKKYMEEAIMQPLDHKNLDMDVPYFADVVSTTENVAVYIWDNLQKVLSVGVLYKVKVYETDNNIVVYKGE [P123S], the “effect of a mutation on the interaction” value is given as “disrupting interaction strength”.

The variants in the next assay derive from B2. The following applies: with tacc1_human TACC1, O75410.
Chain of tacc1_human TACC1, O75410 (O75410 whole entry): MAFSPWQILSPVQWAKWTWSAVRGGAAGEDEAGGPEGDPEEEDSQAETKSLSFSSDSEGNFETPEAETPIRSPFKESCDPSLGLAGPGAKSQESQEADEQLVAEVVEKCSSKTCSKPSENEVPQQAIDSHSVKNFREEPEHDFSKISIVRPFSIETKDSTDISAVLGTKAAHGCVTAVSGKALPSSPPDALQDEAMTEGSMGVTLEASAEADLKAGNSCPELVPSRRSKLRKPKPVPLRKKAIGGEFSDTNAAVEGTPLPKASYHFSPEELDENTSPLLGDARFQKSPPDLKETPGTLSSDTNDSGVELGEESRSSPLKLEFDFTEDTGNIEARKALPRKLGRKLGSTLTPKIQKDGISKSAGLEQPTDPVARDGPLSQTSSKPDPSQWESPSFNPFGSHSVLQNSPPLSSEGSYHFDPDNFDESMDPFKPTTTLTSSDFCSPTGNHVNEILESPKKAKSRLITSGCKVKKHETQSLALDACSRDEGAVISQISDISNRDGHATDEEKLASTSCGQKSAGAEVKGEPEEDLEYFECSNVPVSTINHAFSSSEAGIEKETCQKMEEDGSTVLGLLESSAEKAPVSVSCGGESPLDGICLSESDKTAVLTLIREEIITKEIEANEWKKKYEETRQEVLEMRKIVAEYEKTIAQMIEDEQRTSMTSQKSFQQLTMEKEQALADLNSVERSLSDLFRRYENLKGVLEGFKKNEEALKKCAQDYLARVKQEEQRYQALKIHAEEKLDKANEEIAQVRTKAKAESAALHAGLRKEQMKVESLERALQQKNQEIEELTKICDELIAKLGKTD
Take I439V: the “effect of a mutation on the interaction” value is “disrupting interaction strength”.
Same read-out and setting: as for T601S, the entry is “with no effect”.
The same measure, in the same setting: as for T414A, the entry is “disrupting interaction strength”.
Same read-out and setting: the same measure for R594H: “with no effect”; for L8M: “with no effect”; for P592H: “with no effect”.

In another assay the parent is B3. As to conditions: with go45_human BLZF1, Q9H2G9.
On to MEAKTLGTVTPRKPVLSVSARKIKDNAADWHNLILKWETLNDAGFTTANNIANLKISLLNKDKIELDSSSPASKENEEKVCLEYNEELEKLCEELQATLDGLTKIQVKMEKLSSTTKGICELENYHYGEESKRPPLFHTWPTTHFYEVSHKLLEMYRKELLLKHTVAKELAHTGDPDLTLSYLSMWLHQPYVESDSRLHLESMLLETGHRAL [R164H], for which the “effect of a mutation on the interaction” value is “with no effect”.

In the next assay the parent is B3. As to conditions: with go45_human BLZF1, Q9H2G9. The source holds these as a separate data set.
Turning to MEAKTLGTVTPRKPVLSVSARKIKDNAADWHNLILKWETLNDAGFTTANNIANLKISLLNKDKIELDSSSPASKENEEKVCLEYNEELEKLCEELQATLDGLTKIQVKMEKLSSTTKGICELENYHYGEESKRPPLFHTWPTTHFYEVSHKLLEMYRKELLLKRTVAKELAHTGDPNLTLSYLSMWLHQPYVESDSRLHLESMLLETGHRAL [D177N], the “effect of a mutation on the interaction” value is listed as “with no effect”.

A further assay covers variants of B4. The following applies: with mic19_human CHCHD3, Q9NX63.
On to MWSGPPQPDQGLPPPLAAVPVPWKSTDPCQGHRESPGALVETSAGEEARGQEGPAAAQLDVLRLRSSSMEIREKGSEFLKEELHRAQKELKLKDEECERLSKVREQLEQELEELTASLFEEAHKMVREANMKQAASEKQLKEARGKIDMLQAEVTALKTLVITSTPASPNRELHPQLLSPTKAGPRKGHSRHKSTSSTLCPAVCPAAGHTLTPDREGKEVDTILFAEFQAWRESPTLDKTCPFLERVYREDVGPCLDFTMQELSVLVRAAVEDNTLTIEPVASQTLPTVKVAEVDCSSTNTCALSGLTRTCRHRIRLGDSKSHYYISPSSRARITAVCNFFTYIRYIQQGLVRQDAEPMFWEIMRLRKEMSLAKLGFFPQEA [Q49R], for which the “effect of a mutation on the interaction” value is on record as “with no effect”.
Same read-out and setting: the same measure for MWSGPPQPDQGLPPPLAAVPVPWKSTDPCQGHRESPGALVETSAGEEAQGQEGPAAAQLDVLRLRSSSMEIREKGSEFLKEELHRAQKELKLKDEECERLSKVREQLEQELEELTASLFEEAHKMVREANMKQAASEKQLKEARGKIDMLQAEVTALKTLVITSTPASPNRELHPQLLSPTKAGPRKGHPRHKSTSSTLCPAVCPAAGHTLTPDREGKEVDTILFAEFQAWRESPTLDKTCPFLERVYREDVGPCLDFTMQELSVLVRAAVEDNTLTIEPVASQTLPTVKVAEVDCSSTNTCALSGLTRTCRHRIRLGDSKSHYYISPSSRARITAVCNFFTYIRYIQQGLVRQDAEPMFWEIMRLRKEMSLAKLGFFPQEA [S190P]: “with no effect”.

Variants of B5 are the subject of the next assay. The following applies: with mdfi_human MDFI.
In the case of G357D, the “effect of a mutation on the interaction” value is reported as “with no effect”.

In a further assay the parent is B5. The following applies: with sgta_human SGTA.
Regarding R499Q, the “effect of a mutation on the interaction” value was “with no effect”.
